Data taken from paper PMC11772769, “Selective cargo and membrane recognition by SNX17 regulates its interaction with Retriever” (EMBO Reports, 2024).
Where no end group is shown, it is not given here. The star is where a group is joined. 5FAM = O=C1OC2(c3ccc(O)cc3Oc3cc(O)ccc32)c2ccc(C(=O)*)cc21

B4: MBP-SNX17 H457A (natural protein)
chain: MHFSIPETESRSGDSGGSAYVAYNIHVNGVLHCRVRYSQLLGLHEQLRKEYGANVLPAFPPKKLFSLTPAEVEQRREQLEKYMQAVRQDPLLGSSETFNSFLRRAQQETQQVPTEEVSLEVLLSNGQKVLVNVLTSDQTEDVLEAVAAKLDLPDDLIGYFSLFLVREKEDGAFSFVRKLQEFELPYVSVTSLRSQEYKIVLRKSYWDSAYDDDVMENRVGLNLLYAQTVSDIERGWILVTKEQHRQLKSLQEKVSKKEFLRLAQTLRHYGYLRFDACVADFPEKDCPVVVSAGNSELSLQLRLPGQQLREGSFRVTRMRCWRVTSSVPLPSGSTSSPGRGRGEVRLELAFEYLMSKDRLQWVTITSPQAIMMSICLQSMVDELMVKKSGGSIRKMLRRRVGGTLRRSDSQQAVKSPPLLESPDATRESMVKLSSKLSAVSLRGIGSPSTDASASDVAGNFAFEGIGDEDL
notes: not shown: MBP, N-terminal, kept
B6: SNX17_(FERM-CT) (amino acids 109-470) (domain or fragment)
chain: TQQVPTEEVSLEVLLSNGQKVLVNVLTSDQTEDVLEAVAAKLDLPDDLIGYFSLFLVREKEDGAFSFVRKLQEFELPYVSVTSLRSQEYKIVLRKSYWDSAYDDDVMENRVGLNLLYAQTVSDIERGWILVTKEQHRQLKSLQEKVSKKEFLRLAQTLRHYGYLRFDACVADFPEKDCPVVVSAGNSELSLQLRLPGQQLREGSFRVTRMRCWRVTSSVPLPSGSTSSPGRGRGEVRLELAFEYLMSKDRLQWVTITSPQAIMMSICLQSMVDELMVKKSGGSIRKMLRRRVGGTLRRSDSQQAVKSPPLLESPDATRESMVKLSSKLSAVSLRGIGSPSTDASASDVHGNFAFEGIGDEDL

Key:
Conditions in all cases: both partners purified
[1] = molecular target: B6; assay: fluorescence polarisation
MBP-SNX17 N459A + F462A = molecular target: T1, MBP-SNX17 N459A + F462A (UniProt Q15036 1-470, N459A | F462A); assay: fluorescence polarisation
T1 construct: not shown: MBP, N-terminal, kept
T1 sequence (looked up): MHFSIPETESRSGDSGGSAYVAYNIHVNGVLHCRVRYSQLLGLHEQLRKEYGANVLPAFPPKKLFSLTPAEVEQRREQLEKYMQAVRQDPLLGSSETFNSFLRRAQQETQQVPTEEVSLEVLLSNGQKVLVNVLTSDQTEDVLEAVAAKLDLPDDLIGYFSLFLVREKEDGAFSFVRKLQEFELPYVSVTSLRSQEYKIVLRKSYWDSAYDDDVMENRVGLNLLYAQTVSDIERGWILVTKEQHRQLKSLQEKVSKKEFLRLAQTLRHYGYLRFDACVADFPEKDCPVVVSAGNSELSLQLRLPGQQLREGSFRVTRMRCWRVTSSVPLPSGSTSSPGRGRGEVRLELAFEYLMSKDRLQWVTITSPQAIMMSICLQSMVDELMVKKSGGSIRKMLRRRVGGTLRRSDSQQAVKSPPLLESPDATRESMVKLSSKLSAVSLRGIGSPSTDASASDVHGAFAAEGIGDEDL

Retriever complex [2] = molecular target: T2, Retriever complex (UniProt O14972 1-297; Q9UBQ0 1-182; Q7Z3J2 1-963); assay: pull-down
[3] = molecular target: T3, MBP-SNX17 (full-length, wild-type) (UniProt Q15036 1-470); assay: pull-down
T3 construct: also called MBP-SNX17FL; WT; not shown: MBP, N-terminal, kept
T3 sequence (looked up): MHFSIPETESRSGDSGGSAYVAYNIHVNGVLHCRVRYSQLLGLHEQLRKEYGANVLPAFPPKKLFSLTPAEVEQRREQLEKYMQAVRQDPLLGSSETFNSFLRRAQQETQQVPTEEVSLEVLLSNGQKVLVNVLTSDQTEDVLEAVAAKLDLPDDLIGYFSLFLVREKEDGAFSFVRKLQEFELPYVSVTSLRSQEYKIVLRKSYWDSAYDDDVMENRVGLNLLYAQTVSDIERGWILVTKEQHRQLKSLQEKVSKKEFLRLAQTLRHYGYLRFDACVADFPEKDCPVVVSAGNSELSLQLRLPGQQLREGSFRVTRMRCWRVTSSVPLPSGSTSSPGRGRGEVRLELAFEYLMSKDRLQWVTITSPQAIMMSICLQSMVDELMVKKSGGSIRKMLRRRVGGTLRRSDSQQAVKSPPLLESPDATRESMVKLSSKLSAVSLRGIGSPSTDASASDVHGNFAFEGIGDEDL

Retriever complex [4] = molecular target: T2, Retriever complex; assay: pull-down; GST pull-down: GST-L2FBR on glutathione agarose, Retriever together with SNX17PX, SNX17 FERM-CT or MBP-SNX17FL; VPS35L band quantified; Coomassie
MBP-SNX17 L470G = molecular target: T4, MBP-SNX17 L470G (UniProt Q15036 1-470, L470G); assay: fluorescence polarisation
T4 construct: not shown: MBP, N-terminal, kept
T4 sequence (looked up): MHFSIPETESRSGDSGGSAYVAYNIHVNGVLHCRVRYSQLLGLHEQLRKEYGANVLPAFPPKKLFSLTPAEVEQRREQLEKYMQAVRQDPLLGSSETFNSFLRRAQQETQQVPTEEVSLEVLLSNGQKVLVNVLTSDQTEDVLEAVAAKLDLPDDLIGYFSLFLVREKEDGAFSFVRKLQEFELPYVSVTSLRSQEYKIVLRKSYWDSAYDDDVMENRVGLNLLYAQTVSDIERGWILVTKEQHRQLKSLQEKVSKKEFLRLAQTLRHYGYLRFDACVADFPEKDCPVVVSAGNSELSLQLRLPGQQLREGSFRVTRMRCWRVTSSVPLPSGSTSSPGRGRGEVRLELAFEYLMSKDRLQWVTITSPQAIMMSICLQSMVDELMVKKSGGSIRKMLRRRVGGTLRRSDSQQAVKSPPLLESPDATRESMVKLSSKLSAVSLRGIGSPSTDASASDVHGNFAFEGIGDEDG

MBP-SNX17 H457A = molecular target: B4; assay: fluorescence polarisation

B1: Peptide L2_(14mer) (peptide)
peptide: 5FAM-KLITYDNPAYEGID
notes: source: synthetic peptide (GenScript)
- Kd [1]: 0.6 µM
- binding result (MBP-SNX17 N459A + F462A): binds

B2: MBP-SNX17 W321A (natural protein)
chain: MHFSIPETESRSGDSGGSAYVAYNIHVNGVLHCRVRYSQLLGLHEQLRKEYGANVLPAFPPKKLFSLTPAEVEQRREQLEKYMQAVRQDPLLGSSETFNSFLRRAQQETQQVPTEEVSLEVLLSNGQKVLVNVLTSDQTEDVLEAVAAKLDLPDDLIGYFSLFLVREKEDGAFSFVRKLQEFELPYVSVTSLRSQEYKIVLRKSYWDSAYDDDVMENRVGLNLLYAQTVSDIERGWILVTKEQHRQLKSLQEKVSKKEFLRLAQTLRHYGYLRFDACVADFPEKDCPVVVSAGNSELSLQLRLPGQQLREGSFRVTRMRCARVTSSVPLPSGSTSSPGRGRGEVRLELAFEYLMSKDRLQWVTITSPQAIMMSICLQSMVDELMVKKSGGSIRKMLRRRVGGTLRRSDSQQAVKSPPLLESPDATRESMVKLSSKLSAVSLRGIGSPSTDASASDVHGNFAFEGIGDEDL
notes: as for B4
- binding result (Retriever complex [2]): binds

B3: MBP-SNX17 V380D (natural protein)
chain: MHFSIPETESRSGDSGGSAYVAYNIHVNGVLHCRVRYSQLLGLHEQLRKEYGANVLPAFPPKKLFSLTPAEVEQRREQLEKYMQAVRQDPLLGSSETFNSFLRRAQQETQQVPTEEVSLEVLLSNGQKVLVNVLTSDQTEDVLEAVAAKLDLPDDLIGYFSLFLVREKEDGAFSFVRKLQEFELPYVSVTSLRSQEYKIVLRKSYWDSAYDDDVMENRVGLNLLYAQTVSDIERGWILVTKEQHRQLKSLQEKVSKKEFLRLAQTLRHYGYLRFDACVADFPEKDCPVVVSAGNSELSLQLRLPGQQLREGSFRVTRMRCWRVTSSVPLPSGSTSSPGRGRGEVRLELAFEYLMSKDRLQWVTITSPQAIMMSICLQSMDDELMVKKSGGSIRKMLRRRVGGTLRRSDSQQAVKSPPLLESPDATRESMVKLSSKLSAVSLRGIGSPSTDASASDVHGNFAFEGIGDEDL
notes: as for B4
- binding result (Retriever complex [2]): binds

Binder: B4
- binding result (Retriever complex [2]): binds

B5: GST-LRP1ICD (domain or fragment, UniProt Q07954 4444-4544, looked up)
chain: YKRRVQGAKGFQHQRMTNGAMNVEIGNPTYKMYEGGEPDDVGGLLDADFALDPDKPTNFTNPVYATLYMGGHGSRHSLASTDEKRELLGRGPEDEIGDPLA
notes: not shown: GST, N-terminal, kept
- binding result [3]: binds

Binder: B6
- binding result (Retriever complex [4]): binds

B7: GST-L2FBR (domain or fragment)
chain: DPAFVTTPTKLITYDNPAYEGIDVDNTLYF
notes: as for B5
- binding result [3]: binds

B8: Peptide APP_(14mer) (peptide)
peptide: 5FAM-QQNGYENPTYKFFE
notes: as for B1
- Kd [1]: 19 µM

B9: Peptide ITGB1_(P-14mer) (peptide)
peptide: 5FAM-KWDTGENPIYKSAV
notes: also called ITGB1 membrane-proximal site; source: synthetic peptide (GenScript)
- Kd [1]: 72 µM

B10: Peptide ITGB1_(D-13mer) (peptide)
peptide: 5FAM-AVTTVVNPKYEGK
notes: also called ITGB1 distal site; source: synthetic peptide (GenScript)
- Kd [1]: 125 µM

B11: Peptide LRP1_(14mer) (peptide)
peptide: 5FAM-MNVEIGNPTYKMYE
notes: as for B1
- Kd [1]: 2.2 µM
- binding result (MBP-SNX17 L470G): binds
- binding result (MBP-SNX17 H457A): binds
- binding result (MBP-SNX17 N459A + F462A): binds
